Series [1] has as its system Nc1ccn([C@@H]2O[C@H](CO)[C@@H](O)C2(F)F)c(=O)n1. Briefly: purified protein. To be noted: 0.2 uM enzyme; gemcitabine 0.5-8 mM; initial rates 0-1 min.
Series [2] deals with the molecule itself. Briefly: crystal structure; vapor diffusion, EfCDA at 15 mg/ml; apo-I (0.1 M Tris pH 8.5, 2.2 M (NH4)2SO4), apo-II (0.1 M sodium cacodylate pH 6.5, 20% PEG 4000) and complex with dFdU (co-crystallised with gemcitabine 1:10); tetramer from two molecules of the asymmetric unit by crystal symmetry.

Take “EfCDA (cytidine deaminase of Enterococcus faecium) (Enterococcus lactis)”: the Km (usually the substrate concentration at which the rate is half of its maximum) in series [1] stood at 8.44 mM.

B1: cytidine deaminase of Enterococcus faecium (EfCDA) (enzyme, UniProt Q3XXR8 1-132, looked up)
chain: MAELKQEWINTAIEALDKAYVPYSHFPVGACLVTESGKIYQGINIENASFGLTNCAERTAFFKAVSEGEKTFTHLVVAGHTPDPISPCGACRQVMAEFCSPDMPVTLVGDNGVTKATTVRALLPYAFTEKDL
notes: cytidine deaminase of Enterococcus faecium, full-length protein with a single CDA catalytic domain, 132 amino acids; UniProt A0A133N269, WP_002291109.1; Homotetramer in the crystal: molecules A and B in the asymmetric unit, the tetramer completed by a symmetry operation; One zinc ion per chain (C55, C88, C91); also called EfCDD; T-CDA; source: E. coli BL21 (DE3), purified (HisTrap HP, HiTrap Q, …)
As to B1, in series [2], the stoichiometry N (in general, a count of units in the complex or per binding partner) amounted to 4.

The values above are taken from publication PMC11007441, “Deciphering the role of Enterococcus faecium cytidine deaminase in gemcitabine resistance of gallbladder cancer” (The Journal of Biological Chemistry, 2024).
